Drawing on publication PMC7515630 (2020), this text covers Kd for one molecule.

This assay deals with GST-LOV2GIVe (L) (Avena sativa | , UniProt O49003).

By Kd is commonly meant the concentration at which binding is half-saturated. Higher therefore signals lower affinity.

B1: His-Gαi3 (rat) (natural protein)
chain: MGCTLSAEDKAAVERSKMIDRNLREDGEKAAKEVKLLLLGAGESGKSTIVKQMKIIHEDGYSEDECKQYKVVVYSNTIQSIIAIIRAMGRLKIDFGEAARADDARQLFVLAGSAEEGVMTSELAGVIKRLWRDGGVQACFSRSREYQLNDSASYYLNDLDRISQTNYIPTQQDVLRTRVKTTGIVETHFTFKELYFKMFDVGGQRSERKKWIHCFEGVTAIIFCVALSDYDLVLAEDEEMNRMHESMKLFDSICNNKWFTDTSIILFLNKKDLFEEKIKRSPLTICYPEYTGSNTYEEAAAYIQCQFEDLNRRKDTKEVYTHFTCATDTKNVQFVFDAVTDVIIKNNLKECGLY
Molecule B1 returned a Kd of 270 nM.
